We go through five molecules from patent publication US20200317779A1.

The target in assay [1] is recombinant human CD3ε/δ heterodimer (human) (UniProt P07766). Put plainly: BLI (Octet), antigen on anti-Penta His sensor, antibody 50 nM.
For assay [2], the target named is recombinant cynomolgus monkey CD3ε/δ heterodimer (cynomolgus monkey) (UniProt Q95LI5). Described as above.
Assay [3] addresses recombinant human CD3ε/δ heterodimer (human) (UniProt P07766). Nature of the assay: ELISA, coated CD3ε/δ.
In assay [4] the target is recombinant cynomolgus monkey CD3ε/δ heterodimer (cynomolgus monkey) (UniProt Q95LI5). Put plainly: ELISA, coated CD3ε/δ.

Chain of recombinant cynomolgus monkey CD3ε/δ heterodimer (cynomolgus monkey) (Q95LI5 22-117, stated change not applied, chain 1 of 2): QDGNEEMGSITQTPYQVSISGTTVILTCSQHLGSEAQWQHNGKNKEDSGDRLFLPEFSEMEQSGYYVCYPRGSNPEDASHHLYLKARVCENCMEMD
Chain of recombinant cynomolgus monkey CD3ε/δ heterodimer (cynomolgus monkey) (Q95LI8 22-105, stated change not applied, chain 2 of 2, further chain): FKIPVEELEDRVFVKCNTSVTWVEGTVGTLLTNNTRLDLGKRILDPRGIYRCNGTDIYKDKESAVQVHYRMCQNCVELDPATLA
Chain of recombinant human CD3ε/δ heterodimer (human) (P07766 23-126, stated change not applied, chain 1 of 2): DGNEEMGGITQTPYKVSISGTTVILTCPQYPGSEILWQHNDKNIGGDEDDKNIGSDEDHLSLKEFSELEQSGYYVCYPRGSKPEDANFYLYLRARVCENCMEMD
Chain of recombinant human CD3ε/δ heterodimer (human) (P04234 22-105, stated change not applied, chain 2 of 2, further chain): as the sequence (Q95LI8 22-105, stated change not applied, chain 2 of 2, further chain) above, with V5I, K15N, V20I, T32S, N33D, N34I, A64T, N74S, L83V counted along it

B1: B07 (antibody, human IgG1, lambda, L234A L235A, V domains shown)
VH: EVQLVESGGGLVQPGGSLKLSCAASGFTFNTYAMNWVRQASGKGLEWVGRIRSKYNNYATYYADSVKDRFTISRDDSKNTLYLQMNSLKTEDTAVYYCVRHGNFGNSYVSWFAYWGQGTLVTVSS
VL: QAVVTQEPSLTVSPGGTVTLTCRSSTGAVTTSNYANWFQQKPGQAPRGLIGGTNKRAPWTPARFSGSLLGGKAALTLSGAQPEDEAEYYCALWYSNLWVFGGGTKLTVLG
Take B1: the Kd is 21.4 nM in assay [1] and 30.9 nM in assay [2]. Moreover, the figures for the koff in assay [1] and in assay [2] were 0.00423 s⁻¹ and 0.00642 s⁻¹, respectively. Also, the kon in assay [1] stood at 198000 M⁻¹ s⁻¹; in assay [2], 208000 M⁻¹ s⁻¹. Further, the Absorbance (450 nm) in assay [3] was found to be 0.718; in assay [4], 2.45.

B2: B16 (antibody, human IgG1, lambda, L234A L235A, V domains shown)
VH: EVQLVESGGGLVQPGGSLKLSCAASGFTFNTYAMNWVRQASGKGLEWVGRIRSKYNNYATYYADSVKDRFTISRDDSKNTLYLQMNSLKTEDTAVYYCVRHGNFGNSYVSWFAYWGQGTLVTVSS
VL: QAVVTQEPSLTVSPGGTVTLTCRSSTGAVTTSNYANWVQQKPGQAPRGLIGGTNKRAPWTPARFSGSLLGDKAALTLSGAQPEDEAEYYCALWYSNLWVFGGGTKLTVLG
On to B2, for which the Kd turned out to be 0.445 nM in assay [1] and 0.66 nM in assay [2]. Also, the koff was 0.000144 s⁻¹ in assay [1] and 0.000308 s⁻¹ in assay [2]. Moreover, the kon in assay [1] was found to be 322000 M⁻¹ s⁻¹; in assay [2] it was 466000 M⁻¹ s⁻¹. The Absorbance (450 nm) in assay [3] was determined as 2.37; in assay [4], 2.93.

B3: B08 (antibody, human IgG1, lambda, L234A L235A, V domains shown)
VH: EVQLVESGGGLVQPGGSLKLSCAASGFTFNTYAMNWVRQASGKGLEWVGRIRSKYNNYATYYADSVKDRFTISRDDSKNTLYLQMNSLKTEDTAVYYCVRHGNFGNSYVSWFAYWGQGTLVTVSS
VL: QAVVTQEPSLTVSPGGTVTLTCRSSTGAVTTSNYANWFQQKPGQAPRGLIGGTNKRAPWTPARFSGSLLGDKAALTLSGAQPEDEAEYYCALWYSNLWVFGGGTKLTVLG
On to B3, for which, in assay [1], the Kd was 27.6 nM, the dissociation rate constant (koff) worked out at 0.00407 s⁻¹ and the kon came to 148000 M⁻¹ s⁻¹. Moreover, in assay [2], the Kd is 26.3 nM, the koff worked out at 0.00525 s⁻¹ and the kon turned out to be 199000 M⁻¹ s⁻¹. Besides, in assay [3], the Absorbance (450 nm) stood at 0.424. The Absorbance (450 nm) in assay [4] was 2.19.

B4: B15 (antibody, human IgG1, lambda, L234A L235A, V domains shown)
VH: EVQLVESGGGLVQPGGSLKLSCAASGFTFNTYAMNWVRQASGKGLEWVGRIRSKYNNYATYYADSVKDRFTISRDDSKNTLYLQMNSLKTEDTAVYYCVRHGNFGNSYVSWFAYWGQGTLVTVSS
VL: QAVVTQEPSLTVSPGGTVTLTCRSSTGAVTTSNYANWVQQKPGQAPRGLIGGTNKRAPWTPARFSGSLLGGKAALTLSGAQPEDEAEYYCALWYSNLWVFGGGTKLTVLG
As for B4, the Kd in assay [1] was determined as 0.521 nM; in assay [2] it was 0.627 nM. Moreover, the koff in assay [1] was determined as 0.000193 s⁻¹; in assay [2] it was 0.000328 s⁻¹. In addition, the kon is 371000 M⁻¹ s⁻¹ in assay [1] and 523000 M⁻¹ s⁻¹ in assay [2]. In addition, the Absorbance (450 nm) in assay [3] came to 2.71; in assay [4], 3.16.

B5: A16 (antibody, human IgG1, lambda, L234A L235A, V domains shown)
VH: EVQLVESGGGLVQPGGSLKLSCAASGFTFNTYAMNWVRQASGKGLEWVGRIRSKYNNYATYYADSVKDRFTISRDDSKNTAYLQMNSLKTEDTAVYYCVRHGNFGNSYVSWFAYWGQGTLVTVSS
VL: QAVVTQEPSLTVSPGGTVTLTCRSSTGAVTTSNYANWVQQKPGQAPRGLIGGTNKRAPWTPARFSGSLLGDKAALTLSGAQPEDEAEYYCALWYSNLWVFGGGTKLTVLG
Consider B5, for which, in assay [1], the Kd came to 0.293 nM, the koff was 8.07e-05 s⁻¹ and the kon came to 275000 M⁻¹ s⁻¹. For the same molecule, in assay [2], the Kd amounted to 0.657 nM, the koff is 0.000243 s⁻¹ and the kon was determined as 370000 M⁻¹ s⁻¹. The Absorbance (450 nm) in assay [3] was determined as 2.54. Moreover, the Absorbance (450 nm) in assay [4] turned out to be 2.8.
